In the supplement of paper PMC10567573:

B1: EHMT1 (parent)
chain: FHKDCASRVNNASYCPHCGEESSK
B2: MGC16075 (parent)
chain: AGSRQALSFEVPPCNYDPEKWIQ

Variants of: B1
Assay: protein stability index of a GFP-peptide fusion (GPS, HEK-293T) (PSI 1-6); higher = more stable
Details: c terminus: a fixed tail appended
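Further: lentivirally expressed fusions sorted by FACS into six bins by GFP to DsRed ratio, PSI derived from sequencing read proportions per bin multiplied by bin number.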

Variant	protein stability index
K3H	2.9
K3L	2.57
K3T	2.45
K3I	2.7
K3S	2.01
K3V	2.92
K3W	1.78
K3C	4.57
K3E	3.83
K3G	2.73
K3D	3.47
K3Y	2.61
K3P	2.22
K3N	2.69
K3Q	2.27
K3A	2.58
K3F	1.92
K3R	2.57
K3M	2.29
H2M	3.45
H2D	4.8
H2A	2.61
H2L	3.58
H2K	4.17
H2S	3.1

Variant	protein stability index
H2P	3.37
H2R	3.65
H2T	3
H2V	1.96
H2N	4.18
H2C	5.31
H2F	3.27
H2I	2.08
H2Q	3.1
H2E	4.62
H2G	3.6
H2W	2.62
H2Y	3.69
C5N	2.61
C5G	2.52
C5T	2.25
C5F	2.72
C5Q	2.25
C5M	2.46
C5P	1.77
C5H	2.3
C5W	2.55
C5A	2.53
C5V	2.59
C5K	2.13

Variant	protein stability index
C5Y	2.25
C5D	3.19
C5I	2.42
C5E	2.82
C5L	2.4
C5R	2.36
C5S	2.56
D4L	2
D4T	2.47
D4E	3.55
D4C	4.12
D4Q	2.73
D4F	2.04
D4V	2.41
D4M	1.83
D4W	1.96
D4K	2.59
D4N	3.3
D4Y	2.02
D4H	2.84
D4R	2.3
D4G	2.56
D4P	1.88
D4A	3.16
D4I	2.56

Variant	protein stability index
D4S	3.12
F1W	4.02
F1Q	5.09
F1E	5.17
F1S	4.77
F1G	5.15
F1P	4.43
F1N	4.87
F1Y	3.85
F1C	5.43
F1M	4.9
F1H	5.16
F1I	4.55
F1R	4.59
F1L	4.78
F1T	4.43
F1D	4.77
F1A	4.71
F1K	4.62
F1V	4.78
A6F	2.28
A6D	3.52
A6E	3.6
A6C	4.35

Variants of: B2
Assay: as above
Details: c terminus: native

Variant	protein stability index
I22K	4.72
I22H	4.62
I22L	3.92
I22N	4.99
I22E	4.4
I22C	4.56
I22T	4.85
I22V	2.75
I22A	4.22
I22G	5.11
I22M	4.14
I22D	4.97
I22F	4.43
I22P	4.72
I22S	5.03
I22Q	4.78
I22Y	2.85
I22W	3.22
P13A	1.43
P13G	2.1
P13I	2.7
P13Y	2.88
P13D	1.8
P13T	1.99

Variant	protein stability index
P13Q	2.03
P13M	1.3
P13H	1.2
P13E	1.44
P13K	2.34
P13W	1.98
P13C	3
P13S	2.66
P13F	2.1
P13R	1.29
P13N	1.27
P13V	2.19
P13L	1.62
D17C	1.29
D17L	1.81
D17N	1.51
D17Y	2.15
D17K	3.23
D17T	1.92
D17G	2.29
D17H	2.12
D17I	2.17
D17W	1.91
D17R	2.15

Variant	protein stability index
D17S	1.49
D17A	2.18
D17F	1.57
D17Q	2.18
D17E	2.07
D17V	2
D17P	1.74
D17M	1.9
C14H	2.1
C14W	1.56
C14T	2.2
C14V	1.95
C14F	1.5
C14E	2.21
C14R	1.92
C14M	1.23
C14K	1.64
C14L	1.39
C14N	1.92
C14A	2.28
C14I	1.59
C14G	1.42
C14Y	2.23
C14Q	2.05

Variant	protein stability index
C14D	2
C14S	2.56
E10N	1.7
E10Q	1.23
E10S	2.44
E10K	1.67
E10P	2.3
E10R	1.97
E10V	1.08
E10Y	1.75
E10M	2.56
V11C	2.02
V11H	1.93
V11P	1.75
V11K	2.61
V11N	1.68
V11T	1.89
V11R	2
V11Y	3.25
V11L	1.3
V11M	2.11
V11Q	2.38
V11I	2.6
V11S	1.84

Variant	protein stability index
V11G	1.63
V11W	2.04
V11D	2.93
V11A	2.52
V11E	2.07
W21R	2.16
W21A	2.33
W21L	2.17
W21I	4.03
W21V	2.88
W21N	2.42
W21P	5.2
W21M	3.23
W21D	3.28
W21H	2.32
W21Q	2.83
W21F	2.89
W21K	3.53
P12M	2.33
P12D	1.97
P12N	1.67
P12W	2.69
P12Q	2
P12G	1.37

Variant	protein stability index
P12I	1.17
P12V	2.72
P12E	2.14
P12S	1.71
P12F	2.92
P12K	1.73
P12R	1.81
P12A	1.79
P12T	1.99
P12L	4.23
P12C	2.41
E19W	2.47
E19A	1.22
E19K	3.27
E19C	1.76
E19P	2.28
E19Y	2.07
E19Q	2.72
E19D	2.54
E19S	2.2
E19R	2.14
E19I	1.84
E19M	1.52
E19V	1.86

Variant	protein stability index
E19G	2.16
E19T	1.97
E19L	3.01
E19F	2.33
E19H	2.64
P18Y	1.87
P18Q	2.03
P18W	1.1
P18N	2.15
P18A	1.62
P18V	1.99
P18I	1.92
P18L	2.72
P18F	1.6
P18H	1.84
P18K	1.79
P18T	1.82
P18M	1.91
P18S	1.78
P18G	2.41
P18C	2.3
P18E	2.79
P18D	1.93
P18R	2.36

Variant	protein stability index
N15E	1.58
N15P	2.68
N15L	1.99
N15T	1.64
N15F	1.96
N15M	1.84
N15K	2.53
N15I	2.06
N15R	2.62
N15C	2.23
N15Q	3.17
N15S	1.35
N15Y	2.7
N15A	1.71
N15D	1.78
N15W	2.14
N15H	1.28
N15G	2.03
K20A	3.93
K20T	3.33
K20R	1.98
K20P	4.17
K20W	3.58
K20Q	4.32

Variant	protein stability index
K20C	2.26
K20M	2.69
K20V	1.96
K20F	3.49
K20G	3.9
K20H	3.7
K20I	2.46
K20N	3.71
K20Y	3.78
K20S	3.77
K20D	4.29
Q23H	2.55
Q23I	2.43
Q23K	1.91
Q23F	2.23
Q23N	2.83
Q23E	1.97
Q23G	3.04
Q23M	1.82
Q23V	4.81
Q23W	1.24
Q23D	1.34
Q23P	4.37
Q23Y	2

Variant	protein stability index
Y16A	1.54
Y16E	2.64
Y16K	1.61
Y16M	2.03
Y16Q	2.54
Y16H	1.46
Y16S	1.48
Y16G	3.5
Y16D	2.52
Y16F	1.68
Y16T	2.53
Y16V	2.47
Y16R	1.24
Y16N	2.2
Y16I	2.01
Y16W	1.47
Y16P	2.22
Y16L	2.04
Y16C	2.17
